US20250115680A1 (PROFOUNDBIO US, published 2025)

T1: human PTK-7 recombinant protein (human, UniProt Q13308 31-704, limits assumed)
T1 construct: also called human PTK7 protein
T1 sequence (looked up): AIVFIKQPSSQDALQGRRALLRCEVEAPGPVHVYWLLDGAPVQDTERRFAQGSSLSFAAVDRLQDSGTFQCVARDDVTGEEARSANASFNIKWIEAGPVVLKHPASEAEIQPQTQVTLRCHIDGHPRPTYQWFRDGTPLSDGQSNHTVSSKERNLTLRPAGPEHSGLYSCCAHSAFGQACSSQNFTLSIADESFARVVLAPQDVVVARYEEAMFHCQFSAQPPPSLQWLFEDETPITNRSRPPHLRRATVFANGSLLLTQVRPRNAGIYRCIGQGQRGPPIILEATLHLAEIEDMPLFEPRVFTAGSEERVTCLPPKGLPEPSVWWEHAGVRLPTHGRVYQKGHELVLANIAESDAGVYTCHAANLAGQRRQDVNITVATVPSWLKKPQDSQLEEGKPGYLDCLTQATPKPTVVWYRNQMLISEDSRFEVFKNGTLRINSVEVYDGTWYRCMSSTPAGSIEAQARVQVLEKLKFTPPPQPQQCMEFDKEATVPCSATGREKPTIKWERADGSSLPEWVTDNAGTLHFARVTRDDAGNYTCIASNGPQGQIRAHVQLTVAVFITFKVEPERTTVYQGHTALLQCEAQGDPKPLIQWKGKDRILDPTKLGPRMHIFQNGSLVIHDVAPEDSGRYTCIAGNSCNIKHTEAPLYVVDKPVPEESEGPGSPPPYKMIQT

T2: human PTK7 on the surface of PTK7-expressing tumor cell lines (human, UniProt Q13308 31-1070)
T2 construct: whole, on cells
T2 sequence (looked up): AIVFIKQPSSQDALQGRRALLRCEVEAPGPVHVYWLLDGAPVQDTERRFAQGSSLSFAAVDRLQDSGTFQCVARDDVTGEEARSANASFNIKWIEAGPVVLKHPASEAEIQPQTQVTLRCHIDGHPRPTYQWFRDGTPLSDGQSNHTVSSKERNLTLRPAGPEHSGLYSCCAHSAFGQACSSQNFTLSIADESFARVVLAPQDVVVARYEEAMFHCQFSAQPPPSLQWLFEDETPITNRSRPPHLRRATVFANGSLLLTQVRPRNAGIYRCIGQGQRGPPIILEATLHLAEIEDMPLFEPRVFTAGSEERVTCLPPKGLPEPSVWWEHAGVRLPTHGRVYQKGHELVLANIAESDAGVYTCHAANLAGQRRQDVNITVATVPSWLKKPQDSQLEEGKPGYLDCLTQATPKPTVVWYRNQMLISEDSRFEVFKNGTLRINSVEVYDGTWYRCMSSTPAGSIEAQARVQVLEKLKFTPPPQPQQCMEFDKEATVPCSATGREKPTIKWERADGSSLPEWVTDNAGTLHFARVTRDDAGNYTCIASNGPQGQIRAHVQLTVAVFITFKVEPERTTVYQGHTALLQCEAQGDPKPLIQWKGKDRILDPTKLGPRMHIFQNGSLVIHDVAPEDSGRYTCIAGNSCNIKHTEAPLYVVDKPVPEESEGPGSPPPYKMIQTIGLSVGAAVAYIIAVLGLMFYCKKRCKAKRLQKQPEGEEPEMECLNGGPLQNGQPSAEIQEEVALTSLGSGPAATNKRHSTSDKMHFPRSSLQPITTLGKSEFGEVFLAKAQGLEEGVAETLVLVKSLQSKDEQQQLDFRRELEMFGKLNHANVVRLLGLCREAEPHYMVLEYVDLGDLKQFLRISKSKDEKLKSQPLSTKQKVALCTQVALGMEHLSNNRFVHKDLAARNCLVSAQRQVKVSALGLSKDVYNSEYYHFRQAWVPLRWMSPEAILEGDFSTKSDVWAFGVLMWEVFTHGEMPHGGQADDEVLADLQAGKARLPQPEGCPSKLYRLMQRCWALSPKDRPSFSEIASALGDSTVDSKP


Key:
[1] = molecular target: T1, human PTK-7 recombinant protein; assay: ELISA, plate-coated human PTK7 protein, anti-human Fc-HRP detection
Procedure: Binding specificity property was tested by ELISA according to a standard protocol. Specifically, 96-well micro-plates were coated with 2 μg/mL human, cynomolgus, mouse, and rat PTK-7 recombinant protein in PBS 100 μL per well, incubated overnight at 4° C. Plates were washed twice by TBS+0.5% Tween20. 200 μL of blocking buffer (2% BSA in PBS) was added to each well and incubated at 37° C. for 2 hours. Plates were washed using the buffer mentioned above. Serially diluted antibodies were added to the ELISA plate with 100 μL per well and incubated for 1 hour at room temperature. Then plates were washed for 3 times. After washing, HRP conjugated anti-human Fc antibody solution (abcam, ab98624, diluted with blocking buffer) was added to the plate with 100 μl per well. The plates were incubated at room temperature for 1 hour and then washed for 3 times. Then TMB solution was added to plates with 100 μl per well, placed at room temperature for 5-15 mins, then the stop solution (2M H₂SO₄) was added with 50 μl per well. Finally, the result was measured by absorbance at A₄₅₀ and A₆₃₀.

[2] = molecular target: T2, human PTK7 on the surface of …; assay: flow cytometry on PA-1 cells, PE anti-human Fc detection, MFI(PE)
[3] = molecular target: T2, human PTK7 on the surface of …; assay: flow cytometry on MDA-MB-468 cells, PE anti-human Fc detection, MFI(PE)
[4] = molecular target: T2, human PTK7 on the surface of …; assay: flow cytometry on MDA-MB-453 cells, PE anti-human Fc detection, MFI(PE)
[5] = molecular target: T2, human PTK7 on the surface of …; assay: flow cytometry on MDA-MB-231 cells, PE anti-human Fc detection, MFI(PE)

| EC50 [1] [nM] | EC50 [2] [nM] | EC50 [3] [nM] | EC50 [4] [nM] | EC50 [5] [nM] | Binder |
| --- | --- | --- | --- | --- | --- |
| 0.022 | 0.808 | 0.558 | 0.623 | 0.828 | humanized antibody 13C4 (antibody, V domains shown, Only variable regions are tied to 13C4; It was detected with anti-human Fc) VH: QVQLVESGGGLVKPGGSLRLSCAASGFAFSTYDMFWIRQAPGKGLEWVSTISSGGGYTYYPGSVKGRFTISRDNAKNSLYLQMNSLRAEDTAVYYCVRPLLRDSYFYFDVWGQGTMVTVSS VL: EIVMTQSPATLSVSPGERATLSCRASSSVSSSYLHWYQQKPGQAPRLLIFRTSNLASGIPARFSGSGSGTEYTLTISSLQSEDAAVYYCQQYSGYPLTFGQGTKLEIK |
| 0.027 | 0.711 | 0.543 | 0.488 | 0.506 | humanized antibody 2C5 (antibody, V domains shown, Only variable regions are tied to 2C5; It was detected with anti-human Fc, so it has a human Fc) VH: QVQLVQSGAEVKKPGASVKVSCKASGYTFTDYYINWVRQAPGQGLEWMGDINPYSGGPVYNQKFMARVTMTVDKSINTAYMELSRLRSDDTAVYYCARGDYYGSNYNYWGQGTLVTVSS VL: EIVLTQSPATLSVSPGERATLSCRASQNIGTSIHWYQQKPGQAPRLLIKFASESISGIPARFSGSGSGTEFTLTISSLQSEDIAVYYCQQSNNWPYTFGQGTKLEIK |
| 0.032 | 0.562 | 0.481 | 0.339 | 0.423 | humanized antibody 2C8 (antibody, V domains shown, Only variable regions are tied to 2C8 by name; It was detected with anti-human Fc) VH: QIQLVQSGAEVKKPGASVKVSCKASGYTFTTYGMSWVRQAPGQGLEWMGWINTHSGVPTYVDEFKGRVTMTLDTSTSTAYMELSSLRSEDTAVYYCARSPFDYGSRGAWFVYWGQGTTVTVSS VL: DVVMTQSPDSLAVSLGERATINCRSSQSIVHNSGDTYLEWYQQKPGQPPKLLIYKVSNRFPGVPDRFSGSGSGTDFTLTISSLQAEDLAVYYCFQGSHVPWTFGGGTKVEIK |
